Reference: PMC9585082, “Structural insight into the ligand binding mechanism of aryl hydrocarbon receptor” (Nature Communications, 2022)
Residue numbers refer to the chain shown, from its start. Values belong to the binder of their own block, whether it stands above or below them.

Tests used:
Conditions in all cases: both partners purified
[1] = target: T1, 6xHis-SUMO-tagged dAHR PAS-B Y310A (Drosophila melanogaster, UniProt O61543 264-381, Y310A); assay: ELISA; 100 nM 6xHis-SUMO-dAHR PAS-B (WT or mutants) coated on plates; GST-mARNT PAS-B 0.004-10 µM added, 1 h room temperature; anti-GST detection; four-parameter 'log(agonist) vs response' fit
T1 construct: Aryl hydrocarbon receptor homolog spineless (dAHR), Drosophila melanogaster, UniProt O61543, PAS-B domain aa 264-381; source: E. coli Rosetta (DE3), purified as the WT protein; fusion tag retained
T1 sequence (looked up): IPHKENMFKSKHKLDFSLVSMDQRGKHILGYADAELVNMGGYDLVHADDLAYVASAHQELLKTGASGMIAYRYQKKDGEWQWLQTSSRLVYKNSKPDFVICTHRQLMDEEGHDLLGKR

[2] = target: T2, 6xHis-SUMO-tagged dAHR PAS-B (wild type) (Drosophila melanogaster, UniProt O61543 264-381); assay: as above
T2 construct: Aryl hydrocarbon receptor homolog spineless (dAHR), Drosophila melanogaster, UniProt O61543, PAS-B domain aa 264-381; The printed name '6xHis-SUMO-dAHR PAS-B' puts the tag first; the end is not otherwise stated; also called 6xHis-SUMO-dAHR PAS-B; WT protein; source: E. coli Rosetta (DE3), purified; fusion tag retained
T2 sequence (looked up): T1 sequence (looked up) with A47Y

[3] = target: T3, 6xHis-SUMO-tagged dAHR PAS-B Y305A (Drosophila melanogaster, UniProt O61543 264-381, Y305A); assay: as above
T3 construct: Aryl hydrocarbon receptor homolog spineless (dAHR), Drosophila melanogaster, UniProt O61543, PAS-B domain aa 264-381; source: E. coli Rosetta (DE3), purified as the WT protein; fusion tag retained
T3 sequence (looked up): T1 sequence (looked up) with Y42A, A47Y

[4] = target: T4, 6xHis-tagged dAHR PAS-B, Red-labeled (Drosophila melanogaster, UniProt O61543 264-381, labeled with the MO Red-Tris-NTA protein labeling kit); assay: MST; 50 nM Red-labeled 6xHis-dAHR PAS-B; mARNT PAS-B 100 µM to 3 nM; PBS, 0.05% Tween-20, 2.5% DMSO, 0.5 mM TCEP; with 1 µM αNF
T4 construct: Aryl hydrocarbon receptor homolog spineless (dAHR), Drosophila melanogaster, UniProt O61543, PAS-B domain aa 264-381; the only His-tagged dAHR PAS-B construct it describes is the 6xHis-SUMO fusion (pET-28s), so SUMO may also have been present; also called Red-labeled dAHR PAS-B; source: purified; E. coli Rosetta (DE3) is the host named for pET-28s-dAHR PAS-B
T4 sequence (looked up): T1 sequence (looked up) with A47Y

[5] = target: T4, 6xHis-tagged dAHR PAS-B, Red-labeled; assay: MST; 50 nM Red-labeled 6xHis-dAHR PAS-B; mARNT PAS-B 100 µM to 3 nM; PBS, 0.05% Tween-20, 2.5% DMSO, 0.5 mM TCEP; without αNF

Kd [1]: 500 nM | Kd [2]: ~380 nM | Kd [3]: 1800 nM
B1: GST-tagged mARNT PAS-B (domain or fragment)
chain: not shown
notes: Aryl hydrocarbon receptor nuclear translocator (ARNT), mouse, PAS-B domain aa 360-465; GST retained for ELISA; also called GST-fused recombinant mARNT PAS-B; source: pGEX-6P-1 construct, purified

Kd [4]: ~250 nM | Kd [5]: 300 nM
B2: mouse ARNT PAS-B domain (aa 360-465), fusion tag removed (domain or fragment)
chain: not shown
notes: Aryl hydrocarbon receptor nuclear translocator (ARNT), mouse, PAS-B domain aa 360-465; Subcloned into pET-28s 'similarly' to the AHR PAS-B domains; tag removed with ULP1; also called mARNT PAS-B
